Legend:
[1] = target: C3(x)1 from methylamine treated C3 (peak 2 of the MonoS cation exchange column) (human) (UniProt P01024)
[2] = target: C3(x)2 from methylamine treated C3 (peak 3 of the MonoS cation exchange column) (human) (UniProt P01024)
[3] = target: C3b (human) (UniProt P01024)

Substance: Factor B (natural protein)
- FB remaining after addition of FD (Wes immunoassay with a mAb to Bb), 1-120 min at 37°C in VB++: practically all at 1 min, 85% at 5 min, 60% at 15 min, 30–40% at 60–120 min [1]: 85%
- FB remaining after addition of FD (Wes immunoassay with a mAb to Bb), 1-120 min at 37°C in VB++: all at 1–5 min, 90% at 15 min, 60% at 120 min [2]: 90%
- FB remaining after addition of FD (Wes immunoassay with a mAb to Bb), 1-120 min at 37°C in VB++: 90% at 1 min, ca. 60% at 5 min, 25% at 15 min, almost all consumed at 30 min [3]: 90%

From article PMC7136553
